Assay results: paper doi:10.1101/2025.09.02.671137 (bioRxiv, 2025)

T1: Cdc13 (Saccharomyces cerevisiae, UniProt P32797 1-924)
T1 sequence: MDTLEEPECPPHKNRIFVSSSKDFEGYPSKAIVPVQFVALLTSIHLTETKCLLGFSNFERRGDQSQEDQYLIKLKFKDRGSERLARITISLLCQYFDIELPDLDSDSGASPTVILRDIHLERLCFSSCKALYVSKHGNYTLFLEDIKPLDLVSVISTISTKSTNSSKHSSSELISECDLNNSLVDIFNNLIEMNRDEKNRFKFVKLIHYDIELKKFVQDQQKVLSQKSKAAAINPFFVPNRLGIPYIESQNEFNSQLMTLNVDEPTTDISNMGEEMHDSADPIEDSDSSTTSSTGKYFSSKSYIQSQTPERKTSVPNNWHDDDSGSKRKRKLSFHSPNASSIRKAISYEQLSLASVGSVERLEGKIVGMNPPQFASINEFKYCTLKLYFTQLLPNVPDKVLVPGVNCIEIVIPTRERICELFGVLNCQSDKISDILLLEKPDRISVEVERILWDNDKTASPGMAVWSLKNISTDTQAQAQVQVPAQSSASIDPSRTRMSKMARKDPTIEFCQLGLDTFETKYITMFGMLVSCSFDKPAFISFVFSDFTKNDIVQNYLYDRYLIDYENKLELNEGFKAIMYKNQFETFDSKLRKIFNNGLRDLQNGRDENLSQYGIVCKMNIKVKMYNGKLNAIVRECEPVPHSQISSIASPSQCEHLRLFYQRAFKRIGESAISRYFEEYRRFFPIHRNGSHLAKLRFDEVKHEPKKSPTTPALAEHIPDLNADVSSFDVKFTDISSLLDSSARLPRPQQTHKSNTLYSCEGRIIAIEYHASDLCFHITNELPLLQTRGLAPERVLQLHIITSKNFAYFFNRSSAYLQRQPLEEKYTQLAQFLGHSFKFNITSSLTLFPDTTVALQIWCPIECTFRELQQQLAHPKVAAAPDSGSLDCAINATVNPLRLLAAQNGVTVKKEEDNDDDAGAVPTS

T2: Cdc13-K504E (Saccharomyces cerevisiae, UniProt P32797 1-924, K504E)
T2 sequence: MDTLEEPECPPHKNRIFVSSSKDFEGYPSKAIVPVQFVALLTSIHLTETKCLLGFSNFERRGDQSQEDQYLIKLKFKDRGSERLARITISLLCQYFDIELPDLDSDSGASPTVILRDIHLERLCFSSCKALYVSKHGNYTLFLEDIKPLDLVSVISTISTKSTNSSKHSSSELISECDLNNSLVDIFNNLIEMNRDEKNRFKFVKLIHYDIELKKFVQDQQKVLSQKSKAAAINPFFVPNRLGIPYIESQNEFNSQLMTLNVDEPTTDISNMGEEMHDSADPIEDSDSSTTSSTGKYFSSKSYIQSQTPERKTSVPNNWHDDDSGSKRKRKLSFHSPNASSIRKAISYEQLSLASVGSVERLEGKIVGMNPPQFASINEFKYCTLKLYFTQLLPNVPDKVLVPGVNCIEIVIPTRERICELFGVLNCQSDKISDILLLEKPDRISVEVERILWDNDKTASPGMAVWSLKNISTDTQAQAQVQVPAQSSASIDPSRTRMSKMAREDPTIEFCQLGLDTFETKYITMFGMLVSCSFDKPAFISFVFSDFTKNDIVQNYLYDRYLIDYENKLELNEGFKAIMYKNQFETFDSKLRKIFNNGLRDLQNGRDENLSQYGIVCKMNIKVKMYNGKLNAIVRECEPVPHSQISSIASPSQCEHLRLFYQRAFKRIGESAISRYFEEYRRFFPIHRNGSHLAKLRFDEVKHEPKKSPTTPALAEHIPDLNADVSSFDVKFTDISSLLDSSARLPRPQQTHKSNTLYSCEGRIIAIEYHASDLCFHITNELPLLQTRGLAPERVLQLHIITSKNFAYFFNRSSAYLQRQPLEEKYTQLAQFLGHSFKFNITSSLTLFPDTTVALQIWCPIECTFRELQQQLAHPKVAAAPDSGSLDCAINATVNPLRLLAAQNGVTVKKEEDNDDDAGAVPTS

T3: Cdc13-OB234 (Saccharomyces cerevisiae, UniProt P32797 341-924)
T3 sequence: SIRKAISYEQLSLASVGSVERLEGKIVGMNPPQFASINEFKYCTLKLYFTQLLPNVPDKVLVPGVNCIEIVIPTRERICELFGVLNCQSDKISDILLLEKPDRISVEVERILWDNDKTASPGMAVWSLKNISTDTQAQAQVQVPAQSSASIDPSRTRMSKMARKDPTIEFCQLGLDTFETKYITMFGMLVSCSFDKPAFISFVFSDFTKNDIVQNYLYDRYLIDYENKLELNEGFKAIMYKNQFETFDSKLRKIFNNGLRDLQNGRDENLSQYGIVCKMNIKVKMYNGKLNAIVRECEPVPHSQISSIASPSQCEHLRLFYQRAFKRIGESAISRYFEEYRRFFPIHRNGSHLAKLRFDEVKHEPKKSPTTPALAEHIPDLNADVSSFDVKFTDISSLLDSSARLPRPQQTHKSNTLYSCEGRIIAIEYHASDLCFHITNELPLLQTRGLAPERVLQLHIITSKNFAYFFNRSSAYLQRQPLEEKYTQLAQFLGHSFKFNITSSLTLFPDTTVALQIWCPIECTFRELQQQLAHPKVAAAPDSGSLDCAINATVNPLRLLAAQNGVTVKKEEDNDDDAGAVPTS


Key:
Cdc13 [1] = molecular target: T1, Cdc13; experiment: EMSA
Cdc13-K504E = molecular target: T2, Cdc13-K504E; experiment: EMSA
Cdc13 [2] = molecular target: T1, Cdc13; experiment: EMSA; remark: listed apart in the source
Ku (Ku70-Ku80);Cdc13 = Ku (Ku70-Ku80);Cdc13 (Saccharomyces cerevisiae;Saccharomyces …, UniProt P32807;Q04437;P32797 1-602;1-629;1-924, |); experiment: EMSA
Ku (Ku70-Ku80);Cdc13, sequence (P32807 whole entry, chain 1 of 2): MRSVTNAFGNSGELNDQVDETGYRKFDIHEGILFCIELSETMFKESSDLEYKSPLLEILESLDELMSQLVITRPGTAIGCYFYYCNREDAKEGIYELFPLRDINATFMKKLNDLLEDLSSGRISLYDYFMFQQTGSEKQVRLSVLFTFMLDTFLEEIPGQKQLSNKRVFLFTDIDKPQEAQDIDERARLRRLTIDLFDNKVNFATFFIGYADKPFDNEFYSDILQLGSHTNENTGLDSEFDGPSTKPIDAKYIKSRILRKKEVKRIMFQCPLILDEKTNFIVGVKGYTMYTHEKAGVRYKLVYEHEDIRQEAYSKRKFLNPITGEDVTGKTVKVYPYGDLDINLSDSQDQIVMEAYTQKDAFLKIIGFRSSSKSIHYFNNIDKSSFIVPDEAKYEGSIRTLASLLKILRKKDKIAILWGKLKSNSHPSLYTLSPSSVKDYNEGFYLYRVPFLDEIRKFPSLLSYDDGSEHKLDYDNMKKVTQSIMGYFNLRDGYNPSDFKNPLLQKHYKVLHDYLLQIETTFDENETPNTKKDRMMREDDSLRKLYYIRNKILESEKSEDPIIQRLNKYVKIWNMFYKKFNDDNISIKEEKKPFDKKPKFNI
Ku (Ku70-Ku80);Cdc13, sequence (Q04437 whole entry, chain 2 of 2): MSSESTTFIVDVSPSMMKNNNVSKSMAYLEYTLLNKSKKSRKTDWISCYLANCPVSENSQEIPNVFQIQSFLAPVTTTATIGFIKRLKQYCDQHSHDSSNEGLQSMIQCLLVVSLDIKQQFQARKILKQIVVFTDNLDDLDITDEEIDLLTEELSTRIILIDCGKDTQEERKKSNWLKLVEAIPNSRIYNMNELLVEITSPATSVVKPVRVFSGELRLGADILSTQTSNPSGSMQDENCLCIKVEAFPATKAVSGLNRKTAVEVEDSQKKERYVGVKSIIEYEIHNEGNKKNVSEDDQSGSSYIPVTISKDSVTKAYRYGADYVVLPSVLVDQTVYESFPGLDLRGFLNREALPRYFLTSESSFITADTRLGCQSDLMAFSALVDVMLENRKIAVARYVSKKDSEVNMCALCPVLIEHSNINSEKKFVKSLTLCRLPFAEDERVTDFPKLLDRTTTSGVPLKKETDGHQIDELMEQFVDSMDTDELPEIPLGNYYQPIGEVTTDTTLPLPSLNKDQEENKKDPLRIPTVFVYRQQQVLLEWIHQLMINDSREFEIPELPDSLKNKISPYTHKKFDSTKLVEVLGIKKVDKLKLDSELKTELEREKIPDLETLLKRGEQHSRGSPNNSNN

Cdc13-OB234 = molecular target: T3, Cdc13-OB234; experiment: DNase I footprinting
Cdc13 [3] = molecular target: T1, Cdc13; experiment: DNase I footprinting
RPA = RPA (UniProt P22336;P26754;P26755 1-621;1-273;1-122); experiment: EMSA
RPA, sequence (P22336 whole entry, chain 1 of 3): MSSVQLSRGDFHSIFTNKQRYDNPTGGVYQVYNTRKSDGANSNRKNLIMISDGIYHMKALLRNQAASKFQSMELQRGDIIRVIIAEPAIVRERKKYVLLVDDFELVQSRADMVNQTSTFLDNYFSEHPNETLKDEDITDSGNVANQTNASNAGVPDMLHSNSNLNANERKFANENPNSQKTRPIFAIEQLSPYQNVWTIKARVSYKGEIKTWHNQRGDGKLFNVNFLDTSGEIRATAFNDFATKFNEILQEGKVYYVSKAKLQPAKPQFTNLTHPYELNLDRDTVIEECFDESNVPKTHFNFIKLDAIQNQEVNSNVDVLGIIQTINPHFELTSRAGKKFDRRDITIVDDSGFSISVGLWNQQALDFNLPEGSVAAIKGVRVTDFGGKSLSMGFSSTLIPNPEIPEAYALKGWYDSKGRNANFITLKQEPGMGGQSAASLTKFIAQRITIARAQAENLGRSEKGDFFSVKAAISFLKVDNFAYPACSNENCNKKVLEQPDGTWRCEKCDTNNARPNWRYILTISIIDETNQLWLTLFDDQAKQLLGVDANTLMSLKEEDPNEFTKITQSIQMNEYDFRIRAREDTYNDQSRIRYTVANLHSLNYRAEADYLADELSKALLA
RPA, sequence (P26754 whole entry, chain 2 of 3): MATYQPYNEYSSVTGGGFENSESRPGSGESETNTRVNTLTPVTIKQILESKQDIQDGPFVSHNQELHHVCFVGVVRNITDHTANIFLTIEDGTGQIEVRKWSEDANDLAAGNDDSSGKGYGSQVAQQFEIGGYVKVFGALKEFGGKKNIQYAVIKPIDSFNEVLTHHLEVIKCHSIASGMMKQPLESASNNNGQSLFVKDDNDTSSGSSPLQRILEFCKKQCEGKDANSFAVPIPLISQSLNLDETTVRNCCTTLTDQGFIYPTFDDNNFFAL
RPA, sequence (P26755 whole entry, chain 3 of 3): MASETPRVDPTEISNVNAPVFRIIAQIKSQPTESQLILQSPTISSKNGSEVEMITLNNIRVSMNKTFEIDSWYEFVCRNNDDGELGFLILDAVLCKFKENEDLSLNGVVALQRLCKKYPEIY

SEC = molecular target: the molecule itself; experiment: SEC

Row | Binder | binding result (Cdc13-K504E) | Kd (Cdc13 [2]) | other results
1 | GTGTGGT (ssDNA) [ssTel7] |  |  | binding result (Cdc13 [1]): no binding
2 | Tel14 (dsDNA) DNA 1: ATAATGATAAGACGTAGAGTGGGTGTGTGTGTGGGGTGGT DNA 2: ACACCCACTCTACGTCTTATCATTAT | binds | ~5 nM | 
3 | Tel7 (dsDNA) DNA 1: ATAATGATAAGACGTAGAGTGGGTGTGTGTGTG DNA 2: ACACCCACTCTACGTCTTATCATTAT |  | ~20 nM | 
4 | Tel22 (dsDNA) DNA 1: ATAATGATAAGACGTAGAGTGGGTGTGTGTGTGGGGTGGTGTGTGTGG DNA 2: ACACCCACTCTACGTCTTATCATTAT | binds | < 2.5 nM | binding result (Ku (Ku70-Ku80);Cdc13): binds
5 | L-Tel22 (dsDNA) DNA 1: TTCAGACAACAGTAGACTACAAGGATGACGACAAGATTAAGCTTTCTTATGTGGGTGTGTGTGTGGGGTGGTGTGTGTGG DNA 2: ACACCCACATAAGAAAGCTTAATCTTGTCGTCATCCTTGTAGTCTACTGTTGTCTGAA |  |  | binding result (Cdc13-OB234): binds; binding result (Cdc13 [3]): binds
6 | ds26 (dsDNA) DNA 1: ATAATGATAAGACGTAGAGTGGGTGT DNA 2: ACACCCACTCTACGTCTTATCATTAT |  | ~300 nM | binding result (RPA): no binding
7 | TGTGGGTGTGGTGTGGGTGTGG (ssDNA) [ssTel22] | binds |  | 
8 | Cdc13 (recombinant full-length, Cdc13-Flag) (natural protein, S. cerevisiae, UniProt P32797 1-924, looked up) MDTLEEPECPPHKNRIFVSSSKDFEGYPSKAIVPVQFVALLTSIHLTETKCLLGFSNFERRGDQSQEDQYLIKLKFKDRGSERLARITISLLCQYFDIELPDLDSDSGASPTVILRDIHLERLCFSSCKALYVSKHGNYTLFLEDIKPLDLVSVISTISTKSTNSSKHSSSELISECDLNNSLVDIFNNLIEMNRDEKNRFKFVKLIHYDIELKKFVQDQQKVLSQKSKAAAINPFFVPNRLGIPYIESQNEFNSQLMTLNVDEPTTDISNMGEEMHDSADPIEDSDSSTTSSTGKYFSSKSYIQSQTPERKTSVPNNWHDDDSGSKRKRKLSFHSPNASSIRKAISYEQLSLASVGSVERLEGKIVGMNPPQFASINEFKYCTLKLYFTQLLPNVPDKVLVPGVNCIEIVIPTRERICELFGVLNCQSDKISDILLLEKPDRISVEVERILWDNDKTASPGMAVWSLKNISTDTQAQAQVQVPAQSSASIDPSRTRMSKMARKDPTIEFCQLGLDTFETKYITMFGMLVSCSFDKPAFISFVFSDFTKNDIVQNYLYDRYLIDYENKLELNEGFKAIMYKNQFETFDSKLRKIFNNGLRDLQNGRDENLSQYGIVCKMNIKVKMYNGKLNAIVRECEPVPHSQISSIASPSQCEHLRLFYQRAFKRIGESAISRYFEEYRRFFPIHRNGSHLAKLRFDEVKHEPKKSPTTPALAEHIPDLNADVSSFDVKFTDISSLLDSSARLPRPQQTHKSNTLYSCEGRIIAIEYHASDLCFHITNELPLLQTRGLAPERVLQLHIITSKNFAYFFNRSSAYLQRQPLEEKYTQLAQFLGHSFKFNITSSLTLFPDTTVALQIWCPIECTFRELQQQLAHPKVAAAPDSGSLDCAINATVNPLRLLAAQNGVTVKKEEDNDDDAGAVPTS |  |  | stoichiometry N (SEC): 2
